The target of one data set is MAGOH (UniProt P61326 P61326:1-146). Briefly: UV crosslinking; negative control protein. Particulars: tags: hexa-histidine, E. coli BL21(DE3)-RP; label: 5'-32P. The text has this: (§1) (A,B) Protein:RNA UV crosslinking assays using purified recombinant proteins and 32P-end-radiolabeled G4C2×5 (A) and C4G2×5 (B) repeat RNA probes. Proteins are visualised on SDS-PAGE stained with Coomassie blue (left panels) and covalently linked RNA:protein complexes by autoradiography on Phospholmages (Right panels). UV exposure is indicated by +. […] Nuclei are stained in blue by DAPI. Scale bar: 3 μm;
Sequence of MAGOH (P61326 whole entry, one chain of several): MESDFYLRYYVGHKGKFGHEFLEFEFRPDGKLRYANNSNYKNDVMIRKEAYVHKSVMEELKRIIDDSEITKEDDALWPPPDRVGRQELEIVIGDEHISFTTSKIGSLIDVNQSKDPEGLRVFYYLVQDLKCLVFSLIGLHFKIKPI
(§2) We performed in vitro UV-crosslinking assays using purified recombinant proteins and synthetic G4C2×5 and C4G2×5 RNA probes to investigate direct protein:RNA interactions. […] Purified proteins were incubated with 5′-end 32P-radiolabelled G4C2×5 (FIG. 20a) or C4G2×5 (FIG. 20b) RNA probes prior to irradiation with UV where indicated (+) and resolved by SDS-PAGE.

The target in a further data set is SRSF1 (11-196) (Homo sapiens, UniProt Q07955 SEQ:11-196). Briefly: UV crosslinking; no signal without UV. Conditions: tags: hexa-histidine, E. coli BL21(DE3)-RP; label: 5'-32P.
From the text: as §1, §2

The target of the next data set is ALYREF (Homo sapiens, UniProt Q86V81 Q86V81:1-257). Briefly: UV crosslinking.
The target in data set [1] is T1, SRSF1-m4 (11-196 quadruple Arg to Ala mutant) (Homo sapiens, UniProt Q07955 SEQ:2-187).
T1 chain: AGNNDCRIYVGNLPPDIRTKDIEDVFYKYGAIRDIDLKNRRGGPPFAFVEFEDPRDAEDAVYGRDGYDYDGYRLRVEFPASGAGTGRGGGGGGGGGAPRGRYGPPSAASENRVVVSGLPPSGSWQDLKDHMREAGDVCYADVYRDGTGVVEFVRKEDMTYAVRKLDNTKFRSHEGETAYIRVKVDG
The data set is described as follows: UV crosslinking. Particulars: tags: hexa-histidine, E. coli BL21(DE3)-RP; label: 5'-32P. An excerpt: (§3) Histone H3 is used to check for potential nuclear contamination. (g) Cytoplasmic and total G4C2-repeat sense transcript levels were normalized to Tub84b levels in G4C2×36+Ctrl-RNAi or G4C2×36+SRSF1⁷⁶-RNAi Drosophila in triplicate experiments prior to plotting as a ratio to account for potential changes in mRNA transcription/stability (mean±SEM; paired t-test; N (qRT-PCR reactions)=3).
(§4) N2A cells were transfected with FLAG control, FLAG-tagged SRSF1 or FLAG-tagged SRSF1-m4 and various lengths of sense or antisense repeat transcript constructs prior to fixing of ribonucleoprotein complexes. Cell extracts were then subjected to anti-FLAG immunoprecipitation under the same conditions used in the co-immunoprecipitation of NXF1 (FIG. 6g) prior to the qRT-PCR analysis of SRSF1-crosslinked RNA molecules.

For data set [2], the target named is T1, SRSF1-m4 (11-196 quadruple Arg to Ala …). Briefly: UV crosslinking; mutant position printed R93,94,117,118A in text, R90,93,117,118A in FIG. 13. Conditions: tags: hexa-histidine, E. coli BL21(DE3)-RP; label: 5'-32P.
From the text: as §3, §4

B1: C4G2x5 RNA (ssRNA)
RNA: CCCCGGCCCCGGCCCCGGCCCCGGCCCCGG
With B1, the binding result with MAGOH was “no binding”; with SRSF1 (11-196), “binds”; in the data set with ALYREF it was “binds”; in data set [1], “binds”.

B2: G4C2x5 RNA (ssRNA)
RNA: GGGGCCGGGGCCGGGGCCGGGGCCGGGGCC
For the molecule B2, the binding result in data set [2] was “binds”; in the data set with MAGOH it was “no binding”; in the data set with SRSF1 (11-196), “binds”; with ALYREF, “binds”.
